Measured values as given in patent publication US20090312245A1, “SRA binding protein” (The University of Western Australia, priority 2005, published 2009).

Experiments:
estrogen receptor (ER) = experiment: ERE-Luc (E2-responsive) reporter transfection assay in HeLa cells; assay type: cell-based, human
Method: HeLa cells were transfected using FuGENE6 (Roche) with equal molar ratios of control and plasmid DNA: 50 ng/well ER(α); 0.6 μg/well ERE-Luc, GRE-Luc, TRE-Luc, ARE-Luc, VDRE-Luc; 0.0625 μg/well pSCT or 0.08 μg/well pSCT-SRA/pSCT-SRA-SDM7a; 0.049 μg/well pCMV-FLAG-7.1 or […] FLAG-SLIRP/FLAG-SLIRP-R24/FLAG-SLIRP-L62/FLAG-SLIRP-DM; 0.3 μg/well pCMX or 0.5 μg/well pCMX-SHARP; 100 ng/well pCGN or 100 ng/well pCGN-SKIP. After transfection, cells were cultured in complete medium for 24 h, prior to the addition of E2 (10 nM), Dex (10 nM), T3 (1 nM), DHT (10 nM), VitD (100 nM), 4-hydroxytamoxifen (Tam, 1 nM), ICI182780 (ICI, 1 nM) or equal volume of vehicle (absolute ethanol or water). After 8 h, lysates were assayed for luciferase activity relative to protein levels using Luciferase (Promega) and Protein Assay (BioRad) on a FluorStar Optima (BMG).

SRA STR7 = experiment: REMSA with 32P-labeled SRA STR7 probe and recombinant proteins; assay type: binding, human; conditions: in the presence of heparin and RNase T1
Description: The yeast three-hybrid SLIRP cDNA clone containing the coding region and 3′ UTR, was amplified with specific primers SLIRP (sense) 5′ cgc gga tcc gcg gcc tca gca gca 3′, SLIRP (reverse) 5′ gcg cgg atc cta ggc tgc agt ctca 3′, and subcloned into BamHI cut pCMV-FLAG 7.1 for transfection assays and pGEX-6P2 for GST-fusion protein experiments. STR7 primers (sense) 5′ agg agg cag gta tgt gat gac atc agc cga cgc ctg gca ctg ctg cag gaa cag tgg gct gga gga aag ttg tca ata cct gta aag aa 3′ and (reverse) 5′ ttc ttt aca ggt aft gac aac ttt cct cca gcc cac tgt tcc tgc agc agt gcc agg cgt cgg ctg atg tca tca cat acc tgc ttc ct 3′ were annealed and cloned into EcoRV-digested pBluescript II KS+ to generate labeled riboprobes. To generate the SRA mutant SDM7, the underlined residues above were mutated to tcc, ctc and ctc as outlined previously (19). pBluescript vectors were linearized with EcoRV for transcription with T7 or T3 RNA polymerase (Invitrogen) in reactions containing [^32P]UTP (Amersham Biosciences) or unlabeled UTP, as described (16), to produce riboprobes with a specific activity of ˜2×10^9 cpm/μg RNA. Constructs for expressing mutant forms of SLIRP (R24, 25A and L62A) were prepared by PCR-based mutagenesis. Each of the mutant coding domains was subcloned into BamH1-cut pCMV-FLAG 7.1 and pGEX-6P2 as above. […]

Molecule: SHARP: SMRT/HDAC1 associated repressor protein, SRA corepressor, transfected expression vector [reference compound]
- repression of SRA-mediated coactivation of E2-responsive reporter (estrogen receptor (ER); cotransfected with SRA): repressed SRA-mediated coactivation

B1: GST-SHARP-RRM: GST-SHARP fusion protein containing the three RRM domains (SHARP aas 1-608) (protein, UniProt Q96T58 1-608, looked up, fragment)
chain: MVRETRHLWVGNLPENVREEKIIEHFKRYGRVESVKILPKRGSEGGVAAFVDFVDIKSAQKAHNSVNKMGDRDLRTDYNEPGTIPSAARGLDDTVSIASRSREVSGFRGGGGGPAYGPPPSLHAREGRYERRLDGASDNRERAYEHSAYGHHERGTGGFDRTRHYDQDYYRDPRERTLQHGLYYASRSRSPNRFDAHDPRYEPRAREQFTLPSVVHRDIYRDDITREVRGRRPERNYQHSRSRSPHSSQSRNQSPQRLASQASRPTRSPSGSGSRSRSSSSDSISSSSSTSSDSSDSSSSSSDDSPARSVQSAAVPAPTSQLLSSLEKDEPRKSFGIKVQNLPVRSTDTSLKDGLFHEFKKFGKVTSVQIHGTSEERYGLVFFRQQEDQEKALTASKGKLFFGMQIEVTAWIGPETESENEFRPLDERIDEFHPKATRTLFIGNLEKTTTYHDLRNIFQRFGEIVDIDIKKVNGVPQYAFLQYCDIASVCKAIKKMDGEYLGNNRLKLGFGKSMPTNCVWLDGLSSNVSDQYLTRHFCRYGPVVKVVFDRLKGMALVLYNEIEYAQAAVKETKGRKIGGNKIKVDFANRESQLAFYHCMEKSGQDIRD
modifications: GST fusion
- binding to SRA STR7 probe (SRA STR7): bound STR7 avidly

B2: SKIP: coregulator, coactivator of ER transactivation, transfected expression vector (protein, UniProt Q13573 2-536, looked up)
SNW domain-containing protein …: ALTSFLPAPTQLSQDQLEAEEKARSQRSRQTSLVSSRREPPPYGYRKGWIPRLLEDFGDGGAFPEIHVAQYPLDMGRKKKMSNALAIQVDSEGKIKYDAIARQGQSKDKVIYSKYTDLVPKEVMNADDPDLQRPDEEAIKEITEKTRVALEKSVSQKVAAAMPVRAADKLAPAQYIRYTPSQQGVAFNSGAKQRVIRMVEMQKDPMEPPRFKINKKIPRGPPSPPAPVMHSPSRKMTVKEQQEWKIPPCISNWKNAKGYTIPLDKRLAADGRGLQTVHINENFAKLAEALYIADRKAREAVEMRAQVERKMAQKEKEKHEEKLREMAQKARERRAGIKTHVEKEDGEARERDEIRHDRRKERQHDRNLSRAAPDKRSKLQRNENRDISEVIALGVPNPRTSNEVQYDQRLFNQSKGMDSGFAGGEDEIYNVYDQAWRGGKDMAQSIYRPSKNLDKDMYGDDLEARIKTNRFVPDKEFSGSDRRQRGREGPVQFEEDPFGLDKFLEEAKQHGGSKRPSDSSRPKEHEHEGKKRRKE
- total increase in reporter activity (estrogen receptor (ER); SKIP with cotransfected SRA): ~6 fold
- increase of reporter activity (estrogen receptor (ER); transfected SKIP alone): ~2 fold
